One assay deals with HLA-B*44:02. The assay can be described thus: IEDB peptide-MHC binding, purified MHC/direct/fluorescence; filed as Kd, often an IC50 or EC50 that approximates it; ≥ and ≤ were set here for values at or beyond the usual limits of such assays. Particulars: source organism: Camelpox virus M-96.
A further assay deals with HLA-B*57:01. Described as above. Conditions: source organism: Camelpox virus M-96.
Assay [1] deals with HLA-A*69:01. The description is as above. Particulars: source organism: Camelpox virus M-96.
The target in assay [2] is HLA-A*31:01. Described as above. Particulars: source organism: Camelpox virus M-96.
Assay [3] has as its target HLA-A*11:01. Described as above. Conditions: source organism: Camelpox virus M-96.
The target in assay [4] is HLA-A*01:01. The assay is described as above. Particulars: source organism: Camelpox virus M-96.
Assay [5] addresses HLA-B*07:02. Described as above. Particulars: source organism: Camelpox virus M-96.
Assay [6] has as its target HLA-B*58:01. Described as above. Conditions: source organism: Camelpox virus M-96.
For the next assay, the target named is HLA-B*48:01. The assay is described as above. Particulars: source organism: Camelpox virus M-96.
The target of the next assay is HLA-A*26:03. The description is as above. Conditions: source organism: Variola virus.
Assay [7] concerns the target HLA-B*40:01. The description is as above. Particulars: source organism: Camelpox virus M-96.
Assay [8] deals with HLA-B*18:01. The assay is described as above. Conditions: source organism: Camelpox virus M-96.
Assay [9] concerns the target HLA-B*27:05. Described as above. Conditions: source organism: Camelpox virus M-96.
The next assay deals with HLA-B*15:17. The assay can be described thus: IEDB peptide-MHC binding, purified MHC/competitive/fluorescence; filed as Kd, often an IC50 or EC50 that approximates it; ≥ and ≤ were set here for values at or beyond the usual limits of such assays. Conditions: source organism: Vaccinia virus Copenhagen.
The target of a further assay is HLA-B*39:01. The description is as above. Conditions: source organism: Vaccinia virus Copenhagen.
The next assay addresses HLA-B*15:09. The description is as above. Conditions: source organism: Vaccinia virus Copenhagen.
For another assay, the target named is HLA-A*68:02. The description is as above. Particulars: source organism: Vaccinia virus Copenhagen.
The target of a further assay is HLA-A*30:01. Described as above.
The target in the next assay is HLA-B*46:01. The assay is described as above. Particulars: source organism: Pseudomonas aeruginosa UCBPP-PA14.
Assay [10] concerns the target HLA-A*69:01. The assay is described as above. Conditions: source organism: Pseudomonas aeruginosa UCBPP-PA14.
Another assay concerns the target HLA-B*15:01. Described as above. Particulars: source organism: Pseudomonas aeruginosa UCBPP-PA14.
Assay [11] has as its target HLA-A*31:01. The assay is described as above. Particulars: source organism: Pseudomonas aeruginosa UCBPP-PA14.
A further assay concerns the target HLA-A*03:01. The assay is described as above. Particulars: source organism: Pseudomonas aeruginosa UCBPP-PA14.
Assay [12] deals with HLA-A*11:01. The description is as above. Conditions: source organism: Pseudomonas aeruginosa UCBPP-PA14.
The next assay deals with HLA-A*24:02. The assay is described as above. Particulars: source organism: Pseudomonas aeruginosa UCBPP-PA14.
The target of assay [13] is HLA-A*01:01. The assay is described as above. Particulars: source organism: Pseudomonas aeruginosa UCBPP-PA14.
For assay [14], the target named is HLA-B*07:02. The assay is described as above. Conditions: source organism: Pseudomonas aeruginosa UCBPP-PA14.
In assay [15] the target is HLA-B*58:01. Described as above. Conditions: source organism: Pseudomonas aeruginosa UCBPP-PA14.
The target in a further assay is HLA-A*02:16. The assay is described as above. Conditions: source organism: Pseudomonas aeruginosa UCBPP-PA14.
The target of a further assay is HLA-A*02:50. The assay is described as above. Particulars: source organism: Pseudomonas aeruginosa UCBPP-PA14.
Assay [16] has as its target HLA-B*40:01. Described as above. Conditions: source organism: Pseudomonas aeruginosa UCBPP-PA14.
The target of the next assay is HLA-A*02:19. The description is as above. Conditions: source organism: Pseudomonas aeruginosa UCBPP-PA14.
The target of a further assay is HLA-A*02:06. The description is as above. Conditions: source organism: Pseudomonas aeruginosa UCBPP-PA14.
In assay [17] the target is HLA-B*18:01. The assay is described as above. Particulars: source organism: Pseudomonas aeruginosa UCBPP-PA14.
For a further assay, the target named is HLA-A*02:12. Described as above. Particulars: source organism: Pseudomonas aeruginosa UCBPP-PA14.
In a further assay the target is HLA-A*02:01. The description is as above. Particulars: source organism: Pseudomonas aeruginosa UCBPP-PA14.
In the next assay the target is HLA-B*35:01. The assay is described as above. Conditions: source organism: Pseudomonas aeruginosa UCBPP-PA14.
The target in assay [18] is HLA-B*27:05. Described as above. Particulars: source organism: Pseudomonas aeruginosa UCBPP-PA14.
For another assay, the target named is HLA-A*26:01. The assay is described as above. Conditions: source organism: Pseudomonas aeruginosa UCBPP-PA14.
For another assay, the target named is HLA-A*02:11. The description is as above. Conditions: source organism: Pseudomonas aeruginosa UCBPP-PA14.

The Kd is the free concentration of one partner at which half of the binding sites on the other are occupied at equilibrium, for simple one-to-one binding. A higher Kd goes with lower affinity.

Where only a bound is given, the exact number is not on record here.

Consider LEYGANYFL, for which the Kd with HLA-B*44:02 is ≥ 20 µM; with HLA-B*57:01 it was ≥ 20 µM; with HLA-A*69:01 [1], 1.6 µM; in the assay with HLA-A*31:01 [2], ≥ 20 µM; with HLA-A*11:01 [3] it was ≥ 20 µM; with HLA-A*01:01 [4] it was ≥ 20 µM. In addition, the Kd with HLA-B*07:02 [5] was ≥ 20 µM; in the assay with HLA-B*58:01 [6] it was ≥ 20 µM; with HLA-B*48:01, 4.39 µM; with HLA-A*26:03, ≥ 20 µM; with HLA-B*40:01 [7], 0.0033 µM; with HLA-B*18:01 [8] it was 0.0117 µM. Besides, the Kd was ≥ 20 µM in the assay with HLA-B*27:05 [9]; ≥ 20 µM with HLA-B*15:17; 3 µM with HLA-B*39:01; ≥ 20 µM with HLA-B*15:09; 2.26 µM in the assay with HLA-A*68:02; ≥ 20 µM with HLA-A*30:01 (source organism: Vaccinia virus Copenhagen).

Regarding FLDDASNSA, the Kd with HLA-B*46:01 is ≥ 20 µM; with HLA-A*69:01 [10] it was 1.01 µM; with HLA-B*15:01, ≥ 20 µM; with HLA-A*31:01 [11], ≥ 20 µM; with HLA-A*03:01, ≥ 20 µM; with HLA-A*11:01 [12], ≥ 20 µM. Further, the dissociation constant (Kd) in the assay with HLA-A*24:02 was ≥ 20 µM; with HLA-A*01:01 [13], ≥ 20 µM; with HLA-B*07:02 [14], ≥ 20 µM; with HLA-B*58:01 [15], ≥ 20 µM; with HLA-A*02:16, 0.0016 µM; with HLA-A*02:50, 0.0053 µM. Further, the Kd was ≥ 20 µM with HLA-B*40:01 [16]; 0.1 µM in the assay with HLA-A*02:19; 0.0067 µM with HLA-A*02:06; ≥ 20 µM with HLA-B*18:01 [17]; ≥ 20 µM with HLA-A*30:01 (source organism: Pseudomonas aeruginosa UCBPP-PA14); 0.0022 µM with HLA-A*02:12. The Kd with HLA-A*02:01 is 0.0414 µM; with HLA-B*35:01, ≥ 20 µM; with HLA-B*27:05 [18] it was ≥ 20 µM; in the assay with HLA-A*26:01 it was ≥ 20 µM; in the assay with HLA-A*02:11, 0.0005 µM.

For the origin of these results see the Immune Epitope Database (IEDB).
